{"source": "paper PMC9352680", "about": "“A comprehensive thermodynamic model for RNA binding by the Saccharomyces cerevisiae Pumilio protein PUF4”"}
{"target": "T1, PUF4 RNA-binding domain (Saccharomyces cerevisiae, UniProt P25339 537-888)", "T1 sequence": "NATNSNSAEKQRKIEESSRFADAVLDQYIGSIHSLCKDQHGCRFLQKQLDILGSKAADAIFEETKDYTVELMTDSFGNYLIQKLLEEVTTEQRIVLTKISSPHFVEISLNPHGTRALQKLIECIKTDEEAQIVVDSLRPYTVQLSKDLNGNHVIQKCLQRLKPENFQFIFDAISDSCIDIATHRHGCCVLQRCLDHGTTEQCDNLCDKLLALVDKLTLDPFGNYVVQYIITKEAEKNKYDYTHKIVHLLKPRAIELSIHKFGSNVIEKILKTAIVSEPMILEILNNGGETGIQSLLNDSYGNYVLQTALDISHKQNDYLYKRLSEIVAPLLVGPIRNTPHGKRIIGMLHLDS", "assay": "Mg; RNA-MaP; 20 mM Na-HEPES pH 7.4, 30 mM KOAc, 0.75 mM MgCl2, 0.1% Tween-20, 5% glycerol, 0.1 mg/mL BSA, 2 mM DTT; 25 C; 0.0125-409.6 nM protein", "settings": "tags: N-His6-TEV cleaved; C-SNAP kept, Cy3B-labelled; label: tethered on chip by stalled RNA polymerase", "units": {"Kd": "nM"}}
{"binder": "UCUCUUUGUUUUAUUCUCUCUU (ssRNA)", "note": "[Ib_S1_P5E.1_K5.1_C5.1_H5.1_[A4T]_A5.1_F5.1_[A10C]_T5.1]", "Kd": 899}
{"binder": "UCUCUUUGUCUUAUUGUCUCUU (ssRNA)", "note": "[Ib_S1_P5E.1_K5.1_C5.1_H5.1_[A4C]_A5.1_F5.1_[A10G]_T5.1]", "Kd": 840}
{"binder": "Id_ii_S2_P4E.3_K4.2_C4.2_[C-2A]_[T-1A]_H4.2_A4.1_F4.1_T4.2_[G10C]_[T11A] (ssRNA) RNA: UUUGAUUAAUAUGAUAUCGUUCUUUCUAAUAUAUAUUACAUUCUUUCUCGAUAUCAUAUUAAUCUUU", "Kd": 160}
{"binder": "Id_ii_S2_P4E.3_K4.2_C4.2_[T-1A]_H4.2_A4.1_F4.1_T4.2_[G10C] (ssRNA) RNA: UUUGAUUAAUAUGAUAUCGUUCUUUCUCAUAUAUAUUACUUUCUUUCUCGAUAUCAUAUUAAUCUUU", "Kd": 7.44}
{"binder": "Id_ii_S2_P4E.3_K4.2_C4.2_[T-1A]_H4.2_A4.1_F4.1_T4.2_[G10T] (ssRNA) RNA: UUUGAUUAAUAUGAUAUCGUUCUUUCUCAUAUAUAUUAUUUUCUUUCUCGAUAUCAUAUUAAUCUUU", "Kd": 8.24}
{"binder": "Id_ii_S2_P4E.3_K4.2_C4.2_[T-1A]_H4.2_A4.1_F4.1_T4.2_[G10C]_[T11A] (ssRNA) RNA: UUUGAUUAAUAUGAUAUCGUUCUUUCUCAUAUAUAUUACAUUCUUUCUCGAUAUCAUAUUAAUCUUU", "Kd": 16.3}
{"binder": "Id_ii_S2_P4E.3_K4.2_C4.2_[T-1A]_H4.2_A4.1_F4.1_T4.2_[G10C]_[T11G] (ssRNA) RNA: UUUGAUUAAUAUGAUAUCGUUCUUUCUCAUAUAUAUUACGUUCUUUCUCGAUAUCAUAUUAAUCUUU", "Kd": 32.8}
{"binder": "Id_ii_S2_P4E.3_K4.2_C4.2_[T-1C]_H4.2_A4.1_F4.1_T4.2_[G10T]_[T11A] (ssRNA) RNA: UUUGAUUAAUAUGAUAUCGUUCUUUCUCCUAUAUAUUAUAUUCUUUCUCGAUAUCAUAUUAAUCUUU", "Kd": 17}
{"binder": "Id_ii_S2_P4E.3_K4.2_C4.2_[C-2A]_[T-1A]_H4.2_A4.1_F4.1_T4.2_[G10A]_[T11G] (ssRNA) RNA: UUUGAUUAAUAUGAUAUCGUUCUUUCUAAUAUAUAUUAAGUUCUUUCUCGAUAUCAUAUUAAUCUUU", "Kd": 661}
{"binder": "Id_ii_S2_P4E.3_K4.2_C4.2_[C-2A]_H4.2_A4.1_F4.1_T4.2_[G10C] (ssRNA) RNA: UUUGAUUAAUAUGAUAUCGUUCUUUCUAUUAUAUAUUACUUUCUUUCUCGAUAUCAUAUUAAUCUUU", "Kd": 14.2}
{"binder": "Id_ii_S2_P4E.3_K4.2_C4.2_[T-1A]_H4.2_A4.1_F4.1_T4.2_[G10C]_[T11C] (ssRNA) RNA: UUUGAUUAAUAUGAUAUCGUUCUUUCUCAUAUAUAUUACCUUCUUUCUCGAUAUCAUAUUAAUCUUU", "Kd": 10.3}
{"binder": "Id_ii_S2_P4E.3_K4.2_C4.2_[C-2A]_H4.2_A4.1_F4.1_T4.2_[G10A]_[T11C] (ssRNA) RNA: UUUGAUUAAUAUGAUAUCGUUCUUUCUAUUAUAUAUUAACUUCUUUCUCGAUAUCAUAUUAAUCUUU", "Kd": 40.9}
{"binder": "Id_ii_S2_P4E.3_K4.2_C4.2_[T-1G]_H4.2_A4.1_F4.1_T4.2_[G10A]_[T11G] (ssRNA) RNA: UUUGAUUAAUAUGAUAUCGUUCUUUCUCGUAUAUAUUAAGUUCUUUCUCGAUAUCAUAUUAAUCUUU", "Kd": 266}
{"binder": "Id_ii_S2_P4E.3_K4.2_C4.2_[T-1A]_H4.2_A4.1_F4.1_T4.2_[G10A]_[T11G] (ssRNA) RNA: UUUGAUUAAUAUGAUAUCGUUCUUUCUCAUAUAUAUUAAGUUCUUUCUCGAUAUCAUAUUAAUCUUU", "Kd": 360}
{"binder": "Id_ii_S2_P4E.3_K4.2_C4.2_[T-1C]_H4.2_A4.1_F4.1_T4.2_[G10C]_[T11A] (ssRNA) RNA: UUUGAUUAAUAUGAUAUCGUUCUUUCUCCUAUAUAUUACAUUCUUUCUCGAUAUCAUAUUAAUCUUU", "Kd": 9.95}
{"binder": "Id_ii_S2_P4E.3_K4.2_C4.2_[T-1A]_H4.2_A4.1_F4.1_T4.2_[G10A]_[T11C] (ssRNA) RNA: UUUGAUUAAUAUGAUAUCGUUCUUUCUCAUAUAUAUUAACUUCUUUCUCGAUAUCAUAUUAAUCUUU", "Kd": 17.8}
{"binder": "Id_ii_S2_P4E.3_K4.2_C4.2_[T-1C]_H4.2_A4.1_F4.1_T4.2_[G10T] (ssRNA) RNA: UUUGAUUAAUAUGAUAUCGUUCUUUCUCCUAUAUAUUAUUUUCUUUCUCGAUAUCAUAUUAAUCUUU", "Kd": 3.61}
{"binder": "Id_ii_S2_P4E.3_K4.2_C4.2_[T-1C]_H4.2_A4.1_F4.1_T4.2_[G10A]_[T11A] (ssRNA) RNA: UUUGAUUAAUAUGAUAUCGUUCUUUCUCCUAUAUAUUAAAUUCUUUCUCGAUAUCAUAUUAAUCUUU", "Kd": 12.2}
{"binder": "Id_ii_S2_P4E.3_K4.2_C4.2_[C-2A]_H4.2_A4.1_F4.1_T4.2_[G10C]_[T11C] (ssRNA) RNA: UUUGAUUAAUAUGAUAUCGUUCUUUCUAUUAUAUAUUACCUUCUUUCUCGAUAUCAUAUUAAUCUUU", "Kd": 12.8}
{"binder": "Id_ii_S2_P4E.3_K4.2_C4.2_[C-2A]_H4.2_A4.1_F4.1_T4.2_[G10T]_[T11C] (ssRNA) RNA: UUUGAUUAAUAUGAUAUCGUUCUUUCUAUUAUAUAUUAUCUUCUUUCUCGAUAUCAUAUUAAUCUUU", "Kd": 12.2}
{"binder": "Id_ii_S2_P4E.3_K4.2_C4.2_[C-2A]_[T-1A]_H4.2_A4.1_F4.1_T4.2_[G10T] (ssRNA) RNA: UUUGAUUAAUAUGAUAUCGUUCUUUCUAAUAUAUAUUAUUUUCUUUCUCGAUAUCAUAUUAAUCUUU", "Kd": 214}
{"binder": "Id_ii_S2_P4E.3_K4.2_C4.2_[T-1G]_H4.2_A4.1_F4.1_T4.2_[G10T] (ssRNA) RNA: UUUGAUUAAUAUGAUAUCGUUCUUUCUCGUAUAUAUUAUUUUCUUUCUCGAUAUCAUAUUAAUCUUU", "Kd": 7.25}
{"binder": "Id_ii_S2_P4E.3_K4.2_C4.2_[T-1G]_H4.2_A4.1_F4.1_T4.2_[G10A]_[T11A] (ssRNA) RNA: UUUGAUUAAUAUGAUAUCGUUCUUUCUCGUAUAUAUUAAAUUCUUUCUCGAUAUCAUAUUAAUCUUU", "Kd": 20.5}
{"binder": "Id_ii_S2_P4E.3_K4.2_C4.2_[C-2A]_H4.2_A4.1_F4.1_T4.2_[G10C]_[T11G] (ssRNA) RNA: UUUGAUUAAUAUGAUAUCGUUCUUUCUAUUAUAUAUUACGUUCUUUCUCGAUAUCAUAUUAAUCUUU", "Kd": 25.3}
{"binder": "Id_ii_S2_P4E.3_K4.2_C4.2_[C-2A]_[T-1A]_H4.2_A4.1_F4.1_T4.2_[G10C] (ssRNA) RNA: UUUGAUUAAUAUGAUAUCGUUCUUUCUAAUAUAUAUUACUUUCUUUCUCGAUAUCAUAUUAAUCUUU", "Kd": 35.9}
{"binder": "Id_ii_S2_P4E.3_K4.2_C4.2_[T-1C]_H4.2_A4.1_F4.1_T4.2_[G10A] (ssRNA) RNA: UUUGAUUAAUAUGAUAUCGUUCUUUCUCCUAUAUAUUAAUUUCUUUCUCGAUAUCAUAUUAAUCUUU", "Kd": 7.32}
{"binder": "Id_ii_S2_P4E.3_K4.2_C4.2_[C-2A]_[T-1A]_H4.2_A4.1_F4.1_T4.2_[G10A]_[T11A] (ssRNA) RNA: UUUGAUUAAUAUGAUAUCGUUCUUUCUAAUAUAUAUUAAAUUCUUUCUCGAUAUCAUAUUAAUCUUU", "Kd": 233}
{"binder": "Id_ii_S2_P4E.3_K4.2_C4.2_[T-1C]_H4.2_A4.1_F4.1_T4.2_[G10C]_[T11G] (ssRNA) RNA: UUUGAUUAAUAUGAUAUCGUUCUUUCUCCUAUAUAUUACGUUCUUUCUCGAUAUCAUAUUAAUCUUU", "Kd": 9.56}
{"binder": "Id_ii_S2_P4E.3_K4.2_C4.2_[C-2A]_H4.2_A4.1_F4.1_T4.2_[G10C]_[T11A] (ssRNA) RNA: UUUGAUUAAUAUGAUAUCGUUCUUUCUAUUAUAUAUUACAUUCUUUCUCGAUAUCAUAUUAAUCUUU", "Kd": 18.2}
{"binder": "Id_ii_S2_P4E.3_K4.2_C4.2_[T-1A]_H4.2_A4.1_F4.1_T4.2_[G10A]_[T11A] (ssRNA) RNA: UUUGAUUAAUAUGAUAUCGUUCUUUCUCAUAUAUAUUAAAUUCUUUCUCGAUAUCAUAUUAAUCUUU", "Kd": 37.6}
{"binder": "Id_ii_S2_P4E.3_K4.2_C4.2_[T-1G]_H4.2_A4.1_F4.1_T4.2_[G10A]_[T11C] (ssRNA) RNA: UUUGAUUAAUAUGAUAUCGUUCUUUCUCGUAUAUAUUAACUUCUUUCUCGAUAUCAUAUUAAUCUUU", "Kd": 22.8}
{"binder": "Id_ii_S2_P4E.3_K4.2_C4.2_[C-2A]_H4.2_A4.1_F4.1_T4.2_[G10T]_[T11G] (ssRNA) RNA: UUUGAUUAAUAUGAUAUCGUUCUUUCUAUUAUAUAUUAUGUUCUUUCUCGAUAUCAUAUUAAUCUUU", "Kd": 26.1}
{"binder": "Id_ii_S2_P4E.3_K4.2_C4.2_[T-1C]_H4.2_A4.1_F4.1_T4.2_[G10T]_[T11G] (ssRNA) RNA: UUUGAUUAAUAUGAUAUCGUUCUUUCUCCUAUAUAUUAUGUUCUUUCUCGAUAUCAUAUUAAUCUUU", "Kd": 5.86}
{"binder": "UCUCUUUGUUUUAUUGUCUCUU (ssRNA)", "note": "[Ib_S1_P5E.1_K5.1_C5.1_H5.1_[A4T]_A5.1_F5.1_[A10G]_T5.1]", "Kd": 378}
{"binder": "UCUCUUUGUCUUAUUCUCUCUU (ssRNA)", "note": "[Ib_S1_P5E.1_K5.1_C5.1_H5.1_[A4C]_A5.1_F5.1_[A10C]_T5.1]", "Kd": 1350}
